Experimental data published in patent US12590147 (OBLIQUE THERAPEUTICS, dated 2026).
Changes are numbered by the printed parent chain.

B1: 12G6-1 (antibody, IgG1, V domains shown)
VH: EVQLVESGGDLVNPGGSLKLSCAASGFTISNYGMSWVRQTPDKRLEWVAIIIRDGGYTYYPDSVKGRFTISRDSAKNTLYLQMSSLKSEDTAMYYCARHEYYFDFWGQGTTLTVSS
VL: DVLMTQTPLSLPVSLGDQASISCRSSQTILHSDGNTYLEWYLQKPGQSPKLLIYKVSNRFSGVPDRFSGSGSGTDFTLKISRVEAEDLGVYYCSQGSHFPPTFGGGTKVEIK
notes: mouse monoclonal, IgG1/kappa
B2: 12C9-1 (antibody, IgG2b, V domains shown)
VH: EVQLQQSGPELVKPGTSVKISCKASGYTFTGYYMNWVKQSHGKSLEWIGDINPNNGGTDYNRKFKGKATLTVDKSSSTAYMEVRSLTSEDSAVYYCAKDFAVWGTGTTVTVSS
VL: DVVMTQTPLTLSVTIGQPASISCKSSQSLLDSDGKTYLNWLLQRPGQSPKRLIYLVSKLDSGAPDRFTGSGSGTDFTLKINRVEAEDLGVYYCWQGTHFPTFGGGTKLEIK
notes: mouse monoclonal, IgG2b/kappa
B3: OT-Ab2 (antibody, IgG1, V domains shown)
VH: EVKLLESGGGLVQPGGSLKLSCAASGFDFRRYWMSWVRQAPGKGLEWIGEINPDSSTINYTPSLKDEFIISRDNAKNTLYLQMSKVRSEDTVLYYCSRGGDYWGQGTSVTVSS
VL: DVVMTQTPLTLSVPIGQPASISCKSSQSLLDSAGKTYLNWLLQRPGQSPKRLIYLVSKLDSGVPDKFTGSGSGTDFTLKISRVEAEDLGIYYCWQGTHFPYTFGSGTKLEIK
notes: mouse monoclonal, IgG1/kappa
B4: OT-Ab3 (antibody, IgG1, V domains shown)
VH: B3 VH with K3N
VL: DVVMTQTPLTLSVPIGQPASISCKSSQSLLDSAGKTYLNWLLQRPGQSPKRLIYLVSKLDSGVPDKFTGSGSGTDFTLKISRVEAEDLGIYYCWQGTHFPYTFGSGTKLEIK
notes: mouse monoclonal, IgG1/kappa
B5: OT-Ab1 (antibody, IgG2b, V domains shown)
VH: EVQLQQSGAELVKPGASVKLSCTASGFNIKDTYIHWVKQRPEQGLEWIGRIDPANGNTRYDPKFQGKATITADTSSNTAYLQLSSLTSEDTAVYYCAKVSGDRRFYWYFDVWGAGTTVTVSS
VL: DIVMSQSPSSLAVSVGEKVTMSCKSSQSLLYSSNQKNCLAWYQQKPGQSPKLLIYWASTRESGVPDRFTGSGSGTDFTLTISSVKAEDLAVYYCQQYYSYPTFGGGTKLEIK
notes: mouse monoclonal, IgG2b/kappa
B6: 16F1-1 (antibody, IgG2a, V domains shown)
VH: EVQLVESGGGLVQPKGSLKLSCAASGFTFNTYAMHWVRQAPGKGLEWVARIRSKSSNYATYYADSVKDRFTISRDDSQSMVYLQMNNLKTEDTAMYYCVRKGDGYDGWFAYWGQGTLVTVSA
VL: DIQMTQSPASLSASVGETVTITCRPSGNIHNYLVWYQQKQGKSPQVLVYNSKTLADGVPSRFSGSGSGTQYSLKINSLQPEDFGTYYCQHFWSTPLTFGAGTKLELK
B7: 41B5-1 (antibody, V domains shown)
VH: DVQLQESGPGLVKPSQSLSLTCTVTDYSLTSDYAWNWIRQFPGNKLEWMGYITYSGYTNFNPSLRSRISITRDTSKTQFFLQLNSVTAEDTATYYCVRSTTYFDYWGQGTTLTVSS
VL: B1 VL with T28S, L30V, S81N, V90I, S94F, F99V, V109L
B8: 46B7-1 (antibody, V domains shown)
VH: B7 VH with F60Y, R65K, I68V, A88T, V97A, T101A
VL: B1 VL with T28S, I29V, L30I, S94F, F99V, V109L
B9: 15D8-1 (antibody, V domains shown)
VH: DVQLVESGGGLVQPGGSRKLSCAASGFTFSSFGMHWVRQAPEKGLEWVAYISSGSSTIYYADTVKGRFTISRDNPKNTLFLQMTSLRSEDTAMYYCARRGNAMDYWGQGTSVTVSS
VL: NIMMTQSPSSLAVSAGEKVTMSCKSSQSVLYSSNQKNYLAWYQQKPGQSPKLLIYWASTRESGVPDRFTGSGSGTDFTLTISSVQAEDLAVYYCHQYFSSWTFGGGTKLEIK
B10: 17E11-1 (antibody, IgG1, V domains shown)
VH: EVQLLQSVAELVRPGASVKLSCTASGFNIKNTFIHWLKQRPEQGLEWIGKIDPANGNIRCAPKFQGKATITADTSSNTAYLQLSSLTSGDTAIYYCGRGTMLVGHFYWYFDVWGTGTTVTVSS
VL: DIVMSQSPSSLAVSVGEKITMSCKSSQSLLYSSNQKNYLAWYQQKPGQSPKLLIYWASTRESGVPDRFSGSGSGTDFTLTISSVKTEDLAIFYCQQYYYYPPTFGAGTKLELR
B11: 17E9-1 (antibody, IgG2b, V domains shown)
VH: B10 VH
VL: B10 VL

The binders below were run against T1, human TRPV1 (transient receptor potential vanilloid type 1) (human, UniProt Q8NER1 1-839) (assay: FACS on CHO TRPV1 cells, purified antibody).
T1 construct: ion channel expressed from a tetracycline regulated system (T-REx) in adherent CHO cells, induced with doxycycline; also called hTRPV1
Description: For monoclonal antibody preparations for FACS analysis, CHO TRPV1 cells, HEK 293 cells or CHO S cells were incubated with 50 μl antibody preparation (serum, hybridoma supernatant or purified monoclonal antibody or control) for 40 min at room temperature, followed by 30 min incubation at room temperature with 100 μl secondary antibody (anti-mouse IgG, conjugated to fluorescent probe). Binding was assessed by measurement of fluorescence signal from cells and reported as mean fluorescence intensity (MFI). CHO TRPV1 cells are adherent Chinese hamster ovary (CHO) cells with a tetracycline regulated expression system (T-REx) of hTRPV1 (human TRPV1) as described elsewhere. Doxycycline was used to induce expression of TRPV1. CHO S cells and HEK 293 cells were used as negative control cells. CHO S cells are a high-density suspension-adapted cell type used as a tool for high level expression of recombinant protein, with little or no basal expression of TRPV1. […]
In the study described in the present example, 16 mouse monoclonal antibodies against human TRPV1, 32C8-1, 33C9-1, 34C11-1, 40B10-1, 41B5-1, 43D6-1, 44E8-1, 46B7-1, 46D9-1, 12C9-1, 12G6-1, 15D8-1, 16F1-1, 17E11-1, 17E9-1, 18E10-1, were produced using the hybridoma technology. Specificity of binding to hTRPV1 was determined using FACS, employing a CHO cell line with inducible hTRPV1 expression. […]

T1 sequence (Q8NER1 whole entry): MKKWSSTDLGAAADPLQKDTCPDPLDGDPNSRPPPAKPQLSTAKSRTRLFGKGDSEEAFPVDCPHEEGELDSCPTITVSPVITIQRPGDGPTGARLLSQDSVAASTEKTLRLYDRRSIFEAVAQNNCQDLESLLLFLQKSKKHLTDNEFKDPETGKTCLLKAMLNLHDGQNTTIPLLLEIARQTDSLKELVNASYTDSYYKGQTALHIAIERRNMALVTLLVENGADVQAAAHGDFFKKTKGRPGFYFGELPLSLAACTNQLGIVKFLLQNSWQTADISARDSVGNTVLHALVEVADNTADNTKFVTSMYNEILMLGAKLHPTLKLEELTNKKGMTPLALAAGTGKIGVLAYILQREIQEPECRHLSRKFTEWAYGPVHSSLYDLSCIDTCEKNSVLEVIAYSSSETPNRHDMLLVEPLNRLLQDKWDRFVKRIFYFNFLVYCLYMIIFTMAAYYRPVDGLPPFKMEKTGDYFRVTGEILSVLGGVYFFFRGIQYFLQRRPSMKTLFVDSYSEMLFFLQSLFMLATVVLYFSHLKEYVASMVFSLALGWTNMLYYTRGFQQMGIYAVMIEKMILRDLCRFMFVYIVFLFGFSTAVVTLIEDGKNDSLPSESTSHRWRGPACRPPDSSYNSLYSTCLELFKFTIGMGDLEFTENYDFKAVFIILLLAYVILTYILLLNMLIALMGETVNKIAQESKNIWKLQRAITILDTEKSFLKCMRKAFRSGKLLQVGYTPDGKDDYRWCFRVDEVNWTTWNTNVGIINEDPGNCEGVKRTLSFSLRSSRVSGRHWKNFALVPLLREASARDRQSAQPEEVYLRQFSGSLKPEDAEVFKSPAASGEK

| binding result | Binder |
| --- | --- |
| binds | B1 |
| binds | B2 |

What follows are binders tested against T1, human TRPV1 (transient receptor …) (assay: FACS on CHO cells with induced hTRPV1 expression).
Description: For monoclonal antibody preparations, CHO-TRPV1 cells were incubated with 50 μl antibody preparation (serum, hybridoma supernatant or purified monoclonal antibody) for 30 min at 4° C., followed by 30 min incubation at 4° C. with 50 µl secondary antibody (anti-mouse IgG, conjugated to fluorescent probe). The negative control was secondary antibody only (anti-mouse IgG at […] in the 50 µL sample). Binding was assessed by measurement of fluorescence signal from cells and reported as mean fluorescence intensity (MFI). CHO-TRPV1 cells are adherent Chinese hamster ovary (CHO) cells with a tetracycline regulated expression system (T-REx) of hTRPV1 (human TRPV1) as described elsewhere. Doxycycline was used to induce expression of TRPV1 (denoted +TRPV1). Non-induced cells are denoted –TRPV1.
Three examples of mouse monoclonal antibodies against human TRPV1, OT-Ab1, OT-Ab2 and OT-Ab3, were produced using the hybridoma technology. Specificity of binding to hTRPV1 was determined using FACS, employing a CHO cell line with inducible hTRPV1 expression. OT-Ab1, OT-Ab2 and OT-Ab3 bound to hTRPV1-expressing cells but not to non-hTRPV1-expressing cells indicating strongly specific binding to hTRPV1 (FIG. 5).

| binding result | Binder |
| --- | --- |
| binds | B3 |
| binds | B4 |
| binds | B5 |

The binders below were run against T1, human TRPV1 (transient receptor …) (assay: cell-based or functional assay).

| IC50 of inhibition of TRPV1-mediated capsaicin-induced Ca2+ uptake (FLIPR) | Binder |
| --- | --- |
| ~215 nM | B6 |
| ~170 nM | B7 |
| ~200 nM | B8 |
| ~70 nM | B9 |
| ~230 nM | B10 |
| ~400 nM | B11 |
